Experimental data published in patent US20230192834A1.
Where a chain is given by its changes, count along the chain named.

T1: TGFβ3 (R&D Systems)
T1 sequence (P10600 301-412, species assumed, looked up): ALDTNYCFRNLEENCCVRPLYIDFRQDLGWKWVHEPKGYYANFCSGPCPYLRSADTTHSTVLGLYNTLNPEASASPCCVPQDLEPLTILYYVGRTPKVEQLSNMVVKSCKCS

T2: TGFβ2 (R&D Systems)
T2 sequence (P61812 303-414, species assumed, looked up): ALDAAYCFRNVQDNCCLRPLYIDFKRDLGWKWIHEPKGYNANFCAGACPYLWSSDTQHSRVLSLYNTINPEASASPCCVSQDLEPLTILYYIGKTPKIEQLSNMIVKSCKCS

B1: Felinized anti-TGFβ1,2,3 antibody VH2.1 - VL3 (antibody, V domains shown)
VH: QVLLVQSGADVRKPGASVKIFCKASGYTFTSNVISWVRQTPAQGFEWMGGVIPIVDIANYAQRFKGRLVLTADTSTNTAYMELRSLKSADTAVYYCASTLGLVLDAMDYWGQGSLVTVSS
VL: EIQMTQSPSSLSASPGDRVTITCRASQSLGSSYLAWYQQKPGKVPKLLIYGASSRAPGVPSRFSGSGSGTDFTLTISSLEPEDAATYYCQQYADSPITFGQGTKLEIKR
B2: Felinized anti-TGFβ1,2,3 antibody VH6.1 - VL3 (antibody, V domains shown)
VH: QVLLVQSGAEVRTPGASVKIFCKASGYGFTSNVISWVRQSPAQGLEWMGGVIPIVDIANYAQRFKGRLTLTADTSTDTAYMELSSLRSADTAMYYCASTLGLVLDAMDYWGQGTLVTVSS
VL: B1 VL
B3: Felinized anti-TGFβ1,2,3 antibody VH2.1 - VL8 (antibody, V domains shown)
VH: B1 VH
VL: DIVMTQSPGSLAGSPGQQVTMNCRASQSLGSSYLAWYQQKPGQHPELLIYGASSRAPGVPDRFSGSGSGTDFTLTISNLQAEDVANYYCQQYADSPITFGQGTKLEIKR
B4: Felinized anti-TGFβ1,2,3 antibody VH2.2 - VL7 (antibody, V domains shown)
VH: B1 VH with T30S, I34M, S35H, G50S, N59T, Q62R, K65Q, S98R
VL: DIVLTQPPSLSVNLGQTARITCRASQSLGSSYLAWYQQKPGQAPKLVTYGASSRAPGIPDRFSGTNSGITATLTISGARAEDEADYYCQQYADSPITFGQGTKLEIKR
B5: Felinized anti-TGFβ1,2,3 antibody VH3.8 - VL7 (antibody, V domains shown)
VH: QVQLVQSGAEVKKPGSSVKVSCKASGYTFSSNVISWVRQAPGKGLQWVAGVIPIVDIANYAQRFKGRFTISIDNSKNTLYLQMNSLKTEDTATYYCASTLGLVLDAMDYWGQGTLVTVSS
VL: B4 VL
B6: Caninized anti-TGFβ1,2,3 antibody VH5.6 - VL2 (antibody, V domains shown)
VH: EVQLVESGGDLVKPGGSLRLSCVASGFTFSSNVISWVRQAPGQGLEWMGGVIPIVDIANYAQRFKGRVTITADESTSTTYMELSSLRSEDTAVYYCASTLGLVLDAMDYWGQGTLVTVSS
VL: ETVLTQSPGTLSLSPGERATLSCRASQSLGSSYLAWYQQKPGQAPRLLIYGASSRAPGVPARFSGSGSGTDFTLTISSLEPEDFAVYYCQQYADSPITFGQGTKLEIKR
B7: human: feline GC1008 chimera felchimGC1008 (antibody, V domains shown)
VH: QVQLVQSGAEVKKPGSSVKVSCTASGYTPSSNVISNVRQAPGQGLENNGGVIPIVDIANYAQRPKGRVTITADESTSTTYHELSSLRSEDTAVYYCASTLGLVLDAMDYHGQGTLVTVSS
VL: B6 VL with V59I, A61D, S78R, K104R
B8: Felinized anti-TGFβ1,2,3 antibody VH3.2 - VL1 (antibody, V domains shown)
VH: DVQLVESGGDLVKPGGSLRLTCVASGYTFSSNVMHWVRQAPGKGLQWVAYVIPIVDIAYYADSVKGRFTISIDNSKNTLYLQMNSLKTEDTATYYCARTLGLVLDAMDYWGQGTLVTVSS
VL: B6 VL with V59I, A61D, S78R
B9: Caninized anti-TGFβ1,2,3 antibody VH3.1 - VL3 (antibody, V domains shown)
VH: B8 VH
VL: EIVMTQSPASLSLSQEEKVTITCRASQSLGSSYLAWYQQKPGQAPKLLIYGASSRAPGVPSRFSGSGSGTDFSFTISSLEPEDVAVYYCQQYADSPITFGQGTKLEIKR
B10: Felinized anti-TGFβ1,2,3 antibody VH3.2 - VL3 (antibody, V domains shown)
VH: B8 VH
VL: B1 VL
B11: Felinized anti-TGFβ1,2,3 antibody VH3.2 - VL7 (antibody, V domains shown)
VH: B8 VH
VL: B4 VL
B12: Felinized anti-TGFβ1,2,3 antibody VH3.2 - VL8 (antibody, V domains shown)
VH: B8 VH
VL: B3 VL

biological target: T1, TGFβ3 (R&D Systems); experiment: cell-based or functional assay

Binder | TGFb3 IC50 (SMAD3 phosphorylation in CMVICs, AlphaLISA) [µg/mL]
B1 | 0.132
B2 | 0.014
B3 | 0.124
B4 | 2.2
B5 | 0.204
B6 | 0.056
B7 | 0.053
B8 | 0.053
B9 | 0.034
B10 | 0.023
B11 | 0.018
B12 | 0.008

biological target: TGFβ1 (R&D Systems); experiment: cell-based or functional assay
Sequence (P01137 279-390): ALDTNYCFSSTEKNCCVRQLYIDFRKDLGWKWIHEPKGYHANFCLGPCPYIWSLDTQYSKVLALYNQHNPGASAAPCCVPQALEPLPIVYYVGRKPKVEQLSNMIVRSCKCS

Binder | TGFb1 IC50 (SMAD3 phosphorylation in CMVICs, AlphaLISA) [µg/mL]
B1 | 0.597
B2 | 0.425
B3 | 0.266
B4 | 4.59
B5 | 1.36
B6 | 0.019
B7 | 0.176
B8 | 0.797
B9 | 0.134
B10 | 0.132
B11 | 0.139
B12 | 0.072

biological target: T2, TGFβ2 (R&D Systems); experiment: cell-based or functional assay

Binder | TGFb2 IC50 (SMAD3 phosphorylation in CMVICs, AlphaLISA) [µg/mL]
B1 | 0.277
B2 | 0.223
B3 | 0.031
B4 | 20.6
B5 | 2.67
B6 | 0.691
B7 | 0.167
B8 | 0.19
B9 | 0.954
B10 | 0.14
B11 | 0.048
B12 | 0.037

biological target: T1, TGFβ3 (R&D Systems); experiment: SPR (Biacore T200), TGFβ amine-coupled to chip, 1:1 fit

Binder | Kd [nM]
B1 | 2.6
B2 | 3.57
B3 | 1.06
B4 | 3.52
B5 | 0.635
B6 | 1.67
B7 | 2.35
B8 | 0.0051
B9 | 0.981
B10 | 0.144
B11 | 0.434
B12 | 0.0466

biological target: TGFβ1 (R&D Systems); experiment: as above

Binder | Kd [nM]
B1 | 2.89
B2 | 3.54
B3 | 3.31
B4 | 4.95
B5 | 3.07
B6 | 3.68
B7 | 2.58
B8 | 0.333
B9 | 7.52
B10 | 0.66
B11 | 0.857
B12 | 0.971

biological target: T2, TGFβ2 (R&D Systems); experiment: as above

Binder | Kd [nM]
B1 | 1.91
B2 | 2.99
B3 | 3.41
B4 | 2.16
B5 | 1.94
B6 | 2.6
B7 | 1.88
B8 | 1.84
B9 | 3.91
B10 | 0.751
B11 | 0.589
B12 | 2.13
